Patent publication US20220153832A1 (PIONYR IMMUNOTHERAPEUTICS, published 2022)

T1: N-terminally polyhistidine tagged human MARCO ECD (147-520), recombinant (human, UniProt Q9UEW3 147-520)
T1 construct: also called PI-RG-3000; recombinant human MARCO; not shown: N-terminal polyhistidine tag
T1 sequence: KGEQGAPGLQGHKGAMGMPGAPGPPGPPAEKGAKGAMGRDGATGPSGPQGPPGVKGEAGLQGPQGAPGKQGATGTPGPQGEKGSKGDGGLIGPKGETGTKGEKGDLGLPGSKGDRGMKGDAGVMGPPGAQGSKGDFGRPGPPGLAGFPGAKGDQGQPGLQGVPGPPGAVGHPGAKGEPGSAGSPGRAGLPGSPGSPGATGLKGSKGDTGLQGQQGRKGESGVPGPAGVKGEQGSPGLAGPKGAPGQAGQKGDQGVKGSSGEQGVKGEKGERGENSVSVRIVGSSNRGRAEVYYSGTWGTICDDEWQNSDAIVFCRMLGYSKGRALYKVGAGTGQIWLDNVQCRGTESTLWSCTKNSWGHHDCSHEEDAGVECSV

T2: chimera Mouse MARCO CLD-human MARCO SRCR, on cells
T2 chain: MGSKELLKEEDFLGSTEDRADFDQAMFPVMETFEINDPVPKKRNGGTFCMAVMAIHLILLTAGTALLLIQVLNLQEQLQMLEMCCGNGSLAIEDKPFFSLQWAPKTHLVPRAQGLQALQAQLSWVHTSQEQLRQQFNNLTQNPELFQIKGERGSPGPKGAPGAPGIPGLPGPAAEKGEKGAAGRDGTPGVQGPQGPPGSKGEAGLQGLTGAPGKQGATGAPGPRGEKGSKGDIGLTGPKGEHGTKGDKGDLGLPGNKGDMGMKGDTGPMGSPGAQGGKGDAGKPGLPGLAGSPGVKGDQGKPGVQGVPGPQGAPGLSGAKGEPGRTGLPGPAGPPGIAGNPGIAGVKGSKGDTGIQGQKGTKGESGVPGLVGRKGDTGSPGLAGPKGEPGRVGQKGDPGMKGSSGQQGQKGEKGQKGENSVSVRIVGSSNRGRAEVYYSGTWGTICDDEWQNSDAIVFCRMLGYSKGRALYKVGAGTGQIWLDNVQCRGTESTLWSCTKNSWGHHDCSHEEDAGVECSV


Columns and labels:
[1] = target: T1, N-terminally polyhistidine tagged human …; assay: ELISA readout A450-A620; the panel names no target, the legend says MARCO expressing cells; transiently made reference antibody
[2] = target: T1, N-terminally polyhistidine tagged human …; assay: ELISA readout A450-A620; the panel names no target, the legend says MARCO expressing cells; stable transfection pools
[3] = target: T1, N-terminally polyhistidine tagged human …; assay: Biacore, recombinant human MARCO; control sample
[4] = target: T1, N-terminally polyhistidine tagged human …; assay: ELISA on hMARCO ECD with 2 mM Ca2+, A450-A620
[5] = target: T1, N-terminally polyhistidine tagged human …; assay: ProbeLife Gator
Experimental: The kinetics assay used either anti-mouse Fc or anti-human Fc probes to capture the anti-MARCO antibodies onto the probe, and then a five-step kinetic protocol was used to measure the affinity of the antibodies to the antigen, including the following steps: baseline, loading, baseline, association, and dissociation. The kinetics buffer (K buffer) provided by ProbeLife was used to establish the baseline for 60 seconds, and then the anti-mFc or anti-hFc probes were loaded with 200 nM of the antibodies for 120s until the capture reached saturation, measurement of the baseline in K buffer was performed for another 60s, followed by the association step using 200 nM antigen (human MARCO, mouse MARCO or cyno MARCO), and the dissociation step performed in K buffer for 5-10 minutes. The assay was done at 37° C. to maximize antibody:antigen dissociation.

[6] = target: T2, chimera Mouse MARCO CLD-human MARCO …; assay: flow cytometry, cells overexpressing HuSRCR-mouse CLD chimera

Row | Binder | EC50 (read off the curve) [1] | EC50 (read off the curve) [2] | Kd [3] | EC50 (read off the curve) [4] | koff [5] | EC50 [6]
1 | PI-3015-AB (antibody, human IgG1, kappa) heavy: not shown light: DIQMTQSPSSLSASVGDRVTITCRASEGISNDLAWYQQKPGKAPKLLIYAASRLQSGVPSRFSGSGSGTDYTLTISSMQPEDFATYYCQQSYKYPLTFGQGTKLEIKRTVAAPSVFIFPPSDEQLKSGTASVVCLLNNFYPREAKVQWKVDNALQSGNSQESVTEQDSKDSTYSLSSTLTLSKADYEKHKVYACEVTHQGLSSPVTKSFNRGEC | ~0.2 nM | ~0.2 nM | 0.97 nM | ~1 nM | – | –
2 | PI-3010-AB (antibody, human IgG1, kappa) heavy: not shown light: DIQMTQSPASLSTSLGETVSIECLASEGISNDLAWYQQKSGKSPQLLIYAASRLQDGVPSRFSGSGSGTRYSLKISGMQPEDEADYFCQQSYKYPLTFGSGTKLEIKRTVAAPSVFIFPPSDEQLKSGTASVVCLLNNFYPREAKVQWKVDNALQSGNSQESVTEQDSKDSTYSLSSTLTLSKADYEKHKVYACEVTHQGLSSPVTKSFNRGEC | – | – | – | – | 0.00234 s⁻¹ | 0.25 nM
